Entries after “also recorded” stand apart in the source; their conditions may differ.
How the values were obtained:
Meloidogyne spp. J2s [1] = assay: In vitro mobility of Meloidogyne spp. J2s exposed to plant cysteine proteinases; type: cell-based, M. incognita or M. javanica
Protocol: Eggs of M. incognita race 1 from North Carolina State University, USA, and M. javanica from Portugal were collected from the roots of infected tomato plants grown in a glasshouse at 23° C. in a 16:8 h light-dark regime. Eggs were extracted using 1% hypochlorite (NaClO) solution (Hussey and Barker, 1973) or by picking egg masses from the infected roots. M. incognita and M. javanica were both used in the experiments and produced similar results. Juveniles (J2) were hatched from the eggs and egg masses in water. Globodera rostochiensis cysts were washed extensively in distilled water. Hatched J2s were obtained by incubating cysts in distilled water for 4 days followed by exposure to potato root diffusate (PRD).
(§1) Approximately 1000 J2s (second juvenile stage) of M. incognita or M. javanica were incubated per well of a 48-well plate with the following active enzyme concentrations (determined by E-64 titration) of papain dissolved in distilled water containing 16 mM L-cysteine (to activate the cysteine proteinase): 1.5 μM, 3 μM, 6.25 μM, 12.5 μM, 25 μM, 50 μM, 75 μM and 100 μM. Control wells contained J2s and distilled water with and without 16 mM L-cysteine, or J2s and 1 mM E-64, with and without 50 μM (active enzyme) papain, which had been preincubated for 25 mins at 40° C. Each enzyme concentration and the controls were set up in duplicate (n=2) or triplicate (n=3). The number of active J2s per well was counted prior to the addition of papain, and then the J2s were incubated in the dark at room temperature for 3 h. The number of mobile J2s per well was counted after 60, 120 and 180 mins. The nematode surfaces were examined for signs of damage using a light microscope (Zeiss Axioskop) at ×20, ×40 and ×100 magnification and photographs were taken with a Xillix Microimager. The same procedure was followed when setting up further experiments to compare the effects of 25 μM papain, 25 μM crude papaya latex (0.625 g/ml), 25 μM stem bromelain (0.18 g/ml) and 25 μM actinidin (active enzyme concentrations) with M. incognita, M. javanica or G. rostochiensis.
The data from the in vitro motility experiments were analysed using a repeated measures analysis of variance (as implemented in the GenStat procedure AREPMEASUREMENTS) to compare the overall treatment means, the overall means at each sample time, and the treatment by time interaction. Numbers of nematodes moving at each of the repeated sampling times, 60, 120 and 180 mins, were expressed as a proportion of those moving initially at time 0 (i.e. this latter number was assumed to be the actual number of nematodes initially in the dish). The proportions were transformed to logits prior to analysis. […]

Pratylenchus penetrans = assay: In vitro live/dead count of Pratylenchus penetrans; type: cell-based; set-up: concentration of papain latex that killed the nematodes: unit not given here
Protocol: Eggs of M. incognita race 1 from North Carolina State University, USA were collected from tomato-infected roots grown in a glasshouse at 23° C. in a 16:8 h light-dark regime. Eggs were extracted using 1% hypochlorite (NaClO) solution (Hussey and Barker, 1973) or by picking egg masses from tomato-infected roots. Juveniles (J2) were hatched from the eggs and egg masses in water. Heterodera glycines eggs were obtained from soil samples stored in Rothamsted-Research. Second stage juveniles (J2) were hatched from the eggs in water after 10 days. Pratylenchus penetrans were a gift from Dr. Deeren Anne-Marie from the Institute for Agricultural and Fisheries Research, Merelbeke, Belgium. The beneficial nematodes Steinernema feltiae and Heterorhabditis megidis were a gift from Dr. Paul Williams from Becker Underwood.
Control wells were set up which contained J2s and distilled water with 16 mM L-cysteine. Each enzyme concentration and the controls were set up in duplicate (i.e. n=2). […] The number of live and dead J2s per well was counted after each enzyme incubation. The same procedure was followed when setting up further experiments to compare the effects of these enzymes with Heterodera glycines J2, Pratylenchus penetrans, Steinernema feltiae and Heterorhabditis megidis.

Meloidogyne spp. J2s [2] = assay: Light microscopy and SEM of cuticle damage of Meloidogyne spp. J2s; type: cell-based, M. incognita or M. javanica
Protocol: as §1
The effects on the J2 cuticle were more closely examined by scanning electron microscopy (SEM). Approximately 2000 J2s were used per enzyme or control treatment. These J2s were added to each of four 5 ml tubes and centrifuged at 2500 rpm 4° C. for 5 mins. The supernatant was removed and the J2s were resuspended with 500 μl of 100 μM papain, 100 μM actinidin (active enzyme concentrations) or distilled water with and without 16 mM L-cysteine (the enzyme dilutions were prepared with 16 mM L-cysteine dissolved in distilled water). The nematodes were incubated in the dark at ambient temperature for 4 h before centrifugation as above. The J2s were immediately fixed with 2.5% glutaraldehyde in 0.15M phosphate buffer, pH 7.2 for 1 h at room temperature and were then centrifuged as before prior to washing for 1 h in 0.15M phosphate buffer, pH 7.2 at 4° C. These J2s were then prepared for SEM as described previously by Stepek et al. (2005).

B1: papain (protein, UniProt P00784 134-345, looked up)
Papain: IPEYVDWRQKGAVTPVKNQGSCGSCWAFSAVVTIEGIIKIRTGNLNEYSEQELLDCDRRSYGCNGGYPWSALQLVAQYGIHYRNTYPYEGVQRYCRSREKGPYAAKTDGVRQVQPYNEGALLYSIANQPVSVVLEAAGKDFQLYRGGIFVGPCGNKVDHAVAAVGYGPNYILIKNSWGTGWGENGYIRIKRGTGNSYGVCGLYTSSFYPVKN
notes: cysteine proteinase from Carica papaya, Merops C01.001, Sigma P3125
In the case of B1, the “proportion of active Meloidogyne spp. J2s relative to control” value (Meloidogyne spp. J2s [1]; 25 μM active enzyme) is reported as “Reductions in the proportion of active worms were evident”, the “nematodes mobile after 180 mins” value (Meloidogyne spp. J2s [1]; 50 μM active papain, with or without pre-incubation with 1 mM E-64) is reported as “None” and the “mobility (proportion of mobile J2s) of Meloidogyne spp. J2s” value (Meloidogyne spp. J2s [1]; papain 1.5-100 μM active enzyme, all doses combined, 60-180 mins, vs combined controls) is reported as “decreased the mobility; also recorded: decreased linearly”. The “activity of Meloidogyne J2s relative to combined controls” value (Meloidogyne spp. J2s [1]; papain at active enzyme concentrations of 1.5 μM and 3 μM) was “caused reductions in the activity”, the “concentration of papain latex that killed the nematodes” value (Pratylenchus penetrans) was 62.504 and the recovery of mobility (Pratylenchus penetrans; after 48 hs) was “no recovery of mobility”. For the same molecule, the “visible effects on the surface of the nematodes” value (Meloidogyne spp. J2s [2]; papain 1.5 μM and 3 μM, light microscopy) was “no visible effects on the surface”, the “digestion of the cuticle at the anterior end (light micrographs)” value (Meloidogyne spp. J2s [2]; papain 6.25 μM and 100 μM active enzyme, 3 h) was “Digestion of the cuticle was evident” and the “appearance of the internal structures (light micrographs)” value (Meloidogyne spp. J2s [2]; papain 100 μM, 3 h) was “abnormal granular appearance of the internal structures”. The “active enzyme concentration causing blistering of the cuticle” value (Meloidogyne spp. J2s [2]; papain, light microscopy x40 and x100, anterior end) was “above 6.25 μM”.

From patent publication US20110239327A1, “Nematicidal Effects of Cysteine Proteinases and Methods of Use Thereof to Treat Nematode Infestation” (priority 2007, published 2011)
